The values that follow come from the nanobody polyreactivity screen of Harvey et al. (2022).

This series in a line: yeast display, Sf9 membrane polyspecificity reagent, FACS + sequencing; frameworks hold sequencing errors. Put shortly: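 Genes from sorted yeast were amplified by colony PCR, read by MiSeq 2 × 250 sequencing and filtered on CDR length. These cells carried a synthetic nanobody library in Saccharomyces cerevisiae BJ5465 and were sorted by FACS into low and high (top ~1%) gates on anti-HA and streptavidin fluorescence. Polyreactivity is labelled according to the gate of origin.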
On to “QVQLVESGGGLVQAGGSLRLSCDASGRIFYGYAMGWYRQAPGKERELVAAITYIGGTYYADSVKGRFTISRDNAKNTVYLQMNSMKPEDTAVYYCNALYRYLYRSGDFWGQGSQVTVSS”, for which the “polyreactivity (PSR sort gate)” value was “low polyreactivity”.

For “QVQLVESGGGLVQAGGSLRLSCDASGRIFYNYAMGWYRQAPGTERELVAAISGSGGSTYYADSVKGRFTISRDNAKNTVYLQMNSLKPEDTAVYDCSTFGPQYYSRNFDYWGQGTLVTVSS”, the “polyreactivity (PSR sort gate)” value was “low polyreactivity”.

Turning to “QVQLVESGGGLVQAGGSLRLSCDASGRIFYSYDIGWYRQAHGKARELVATISSAGSTYYADSVKGRFTISRDNAKNTVYLQMNSLKPEDTAVYYSARRSGWWTRMDSWGQGTQVTVSS”, the “polyreactivity (PSR sort gate)” value is given as “high polyreactivity”.

As for “QVQLVESGGGLVQAGGSLRLSCDASGRIFYYYGMGWYRQAPGKERELVAAISNGGRTYYADSVKGRFTISRDNAKNTVYLQMNSLKPEDTAVYYCAALTRGRGGYDYWGQGTQVTVSS”, the “polyreactivity (PSR sort gate)” value is reported as “high polyreactivity”.

Regarding “QVQLVESGGGLVQAGGSLRLSCDASGRILKYNAMGWYRQAPGKERELVAAISGSGGRTYYADSVKGRFTISRDNAKNTVYLQMNSLKPEDTAVYYCAASNASPGGFNYWGQGTQVTVSS”, the “polyreactivity (PSR sort gate)” value was “high polyreactivity”.

With “QVQLVESGGGLVQAGGSLRLSCDASGRIYEVYAMGWYRRAPGKERELVAAISADGTITSYADSVKGRFTISRDNAKNNVYLQMNSLKPEDTAVYYCNADPRFRGDYWGQGTQVTVSS”, the “polyreactivity (PSR sort gate)” value is listed as “high polyreactivity”.

Consider “QVQLVESGGGLVQAGGSLRLSCDASGRPFRRNAMGWYRQAPGKERELVAAITLSGGRTYADSLKGRFTISRDNAKNTVYLQMNSLKPEDTAVYYCAASSPGFSYWYNGYEYWGEGTQVTVSS”, for which the “polyreactivity (PSR sort gate)” value was “high polyreactivity”.

In the case of “QVQLVESGGGLVQAGGSLRLSCDASGRTLDVNARGWYRQAPGKERELVAAISYSGGITYYADSVKGRFTISRDNAKNTVYLQMNRLKPEDTAVYYCAVVGGYPSYTVDYWGKGTQVTVSS”, the “polyreactivity (PSR sort gate)” value is “low polyreactivity”.

With “QVQLVESGGGLVQAGGSLRLSCDASGSIFATYAMGWYRQAPGKERELVAAIRRSTGTTYYADSVKGRFTISRDNAKNTVYLQMNSLKPEDTAVYYCAALFRPRVHRYDYWGQGTLVTVSS”, the “polyreactivity (PSR sort gate)” value is recorded as “low polyreactivity”.

“QVQLVESGGGLVQAGGSLRLSCDASGSIFEYYAMGWYRPAPGKERELVAAISSGGPTYYADSVKGRFTISRDNAKNTVYLQMNSLKPEDTAVYYCNADLWYPDYDYWGQGTQVTVSS”: the “polyreactivity (PSR sort gate)” value is listed as “low polyreactivity”.

For “QVQLVESGGGLVQAGGSLRLSCDASGSIFGVNAMGWYRQAPGKERELVAAINNGGSTKYADSVKGRFTISRDNAKNTVYLQMNSLKPEDTAVYYCAARSWTHYFRFDYWGQGTQVTVSS”, the “polyreactivity (PSR sort gate)” value was “high polyreactivity”.

Turning to “QVQLVESGGGLVQAGGSLRLSCDASGSIFPYYAMGWYRQAPGKERELVAAITSSDGITYYADSVKGRFTISRDNAKNTVYLQMNSLKPEDTAVYYCAAEVYVADWLTEFYYWGQGTQVTVSS”, the “polyreactivity (PSR sort gate)” value is “high polyreactivity”.

As to “QVQLVESGGGLVQAGGSLRLSCDASGSIFSHYAMGWYRQAPGKERELVATITWRGGSNTNYADSVKGRFTISRDNAKNTVYLQMNSLKPEDTAVYYCAADGDGYYYWGQGTQVTVSS”, the “polyreactivity (PSR sort gate)” value is “low polyreactivity”.

As to “QVQLVESGGGLVQAGGSLRLSCDASGSIFYFNAMGWYRQAPGKERELVASITSGGSTNYADSVKGRFTISRDNAKNTVYLQMNSLKPEDTAVYYCNARKVTYPLYQDEMEYWGQGTQVTVSS”, the “polyreactivity (PSR sort gate)” value is “low polyreactivity”.

For the sequence “QVQLVESGGGLVQAGGSLRLSCDASGSILSFYVMGWYIQAPGKERELVAAINLSSGRTYYADSVKGRFTISRDNAKNTVYLQMNSLKPEDTAVYYCAKQVFGYGIVNNGDYWGQGTQVTVSS”, the “polyreactivity (PSR sort gate)” value was “high polyreactivity”.

For “QVQLVESGGGLVQAGGSLRLSCDASGSISVVNMGWYRQAPGKERELVASNTSSGSTTYADSVKGRFTISRDKAKNTVYLQMNRLKPEDTAVYYCAADVGTDYTYQHPAGAAYDYCGQGTQVTVSS”, the “polyreactivity (PSR sort gate)” value is listed as “low polyreactivity”.

As for “QVQLVESGGGLVQAGGSLRLSCDASGSSFDYYARGWYRQAPGTERELVAAITSTGRTYYADSVKGRFTISRDNAKNTVYLQMNSLKPDDTAVYYCAADQPWGPLFDYWGQGTQVTVSS”, the “polyreactivity (PSR sort gate)” value is “low polyreactivity”.

On to “QVQLVESGGGLVQAGGSLRLSCDASGSTFAAYAMGWYRQAPGKERELVAAISRSGGTTYYADSVKGRFTISRDNAKNTVYLQMNSLKPEDTAVYYCAAELSLGNYWYDYWGQGTQVTVSS”, for which the “polyreactivity (PSR sort gate)” value was “high polyreactivity”.

With “QVQLVESGGGLVQAGGSLRLSCDASGSTFVTYAMGWYRPAPGKERELVAAINTGGRTKYADSVKGRFTISRDNATNTVYLQMNSLKPEDTAVYYCAARLSTTGVAYGYWGQGTQVTVSS”, the “polyreactivity (PSR sort gate)” value is recorded as “high polyreactivity”.

As to “QVQLVESGGGLVQAGGSLRLSCDASGSTFYPNAMGWYRQAPWKERELVAAITTSGGSTYYADSVKGRFTISRDNAKNTVYLQMNSLKPEDTAVYYCAAEVRDRGLEPYGPIYDYWGQGTQVTVSS”, the “polyreactivity (PSR sort gate)” value is “high polyreactivity”.

Regarding “QVQLVESGGGLVQAGGSLRLSCDPSGRIFNRYAMGWYRQAPGKERELVAAITSGGDTNYADSVKGRFTISRDNAKNTVYLQMNSLKQEDTAVYYCNARSRGRASGYDYWGQGTQVTVSS”, the “polyreactivity (PSR sort gate)” value is “high polyreactivity”.

On to “QVQLVESGGGLVQAGGSLRLSCEASGFTFGPYAMGWYRQAPGKEREWVAAIDDSGGNTYYADSVKGRFTISRDNAKNTVYLQRNSLKPEDTAVSYGNAFGPDYYHVYPAEDYWGQGTQVTVSS”, for which the “polyreactivity (PSR sort gate)” value is “low polyreactivity”.

With “QVQLVESGGGLVQAGGSLRLSCEASGRIFDDNDMGWYRQAPGKERELVAAISSGDSTKYADSVKGRFTITRDNAKNTVYLQMNSLKPEDTAVYYCAAERNHGLVGSESVGRNDYWGQGTQVTVSS”, the “polyreactivity (PSR sort gate)” value is given as “low polyreactivity”.

On to “QVQLVESGGGLVQAGGSLRLSCGASGFIFEGYSMGRYRQAPAKERELVAANTRGDSTNYADSVKGRFTISRDNAKNTVYLLMNSLKTEDTAVYYCAKTNLIGTDFTSPVQYYYWGQGTQVTVSS”, for which the “polyreactivity (PSR sort gate)” value is given as “low polyreactivity”.

Take “QVQLVESGGGLVQAGGSLRLSCGASGIIFLVNAMGWYRQAPGRERELVATITSGGSTYADSVKGRFTISRDNAKNTVYLQMNSLKPEDTAVYYCAAVRRRRNSYGYWGQGTQVTVSS”: the “polyreactivity (PSR sort gate)” value is “high polyreactivity”.

Turning to “QVQLVESGGGLVQAGGSLRLSCGASGRTIDYNGMGWYRQEPGKERELVSVISSSGGSTFYADSVKGRFTISRDNAKNTVYLQMNSLEPEDTAVYYCAALHVGHNYYNSGFYYWGQGTQVTVSS”, the “polyreactivity (PSR sort gate)” value is “low polyreactivity”.

On to “QVQLVESGGGLVQAGGSLRLSCGASGSIFPHYAMGWYRQAPGKEREFVSTISGSTGRTYYADSVKGRFTISRDNAKNTVYLQMNSLKPEDTAVYYCATSVGYYLPPIKYDYWGQGTQVTVSS”, for which the “polyreactivity (PSR sort gate)” value is on record as “low polyreactivity”.

Consider “QVQLVESGGGLVQAGGSLRLSCGASGSIFYGYAMGWYRQAPGKERELVAAITLSGRRTYYADSVKGRFTISRDNAKNTVDSQMNTLKPEDTEVYYCAKHYPYPTEMNYWGQGTQVTVTS”, for which the “polyreactivity (PSR sort gate)” value is “high polyreactivity”.

As to “QVQLVESGGGLVQAGGSLRLSCGASGSISKINAMGWYRQARGKERELVAAINTGDSTYYADSVKGRFTISRDNAKNTVYLQRNSLKPEDTAVYYCAAEGSPTGYDYWGLGTQVTVSS”, the “polyreactivity (PSR sort gate)” value is listed as “low polyreactivity”.

As to “QVQLVESGGGLVQAGGSLRLSCGASGSTSVRYAMGWYRQAPGKERELVAAISSSGGSTYYAVSVKGRFTISRDTAKNTVYLQMNSLKPEDTAVYYCNAVPYTTFDWGQGTQVTVSS”, the “polyreactivity (PSR sort gate)” value is on record as “low polyreactivity”.

With “QVQLVESGGGLVQAGGSLRLSCGAYGRIFLFYDMGWYRQEPGKVRELVATISFRGGSTYYADSVKGRFTISRDNAKNTVYLQMNRLKPEDTAVYYCAKQNKRGYSTSAYYSWGQGTQVTVSS”, the “polyreactivity (PSR sort gate)” value was “low polyreactivity”.

For “QVQLVESGGGLVQAGGSLRLSCGAYGSIFVSHAMAWSRQAPGKASELVAAISQSGGSTYYADSVKGRFTISRDNAKNTVFLQMSSLKPEDTAVYYCATPSRSGFRIYDYWGQGTQVTVSS”, the “polyreactivity (PSR sort gate)” value was “low polyreactivity”.

For “QVQLVESGGGLVQAGGSLRLSCHASGFIFGYKAMGWYRQAPGKERELVAAISSGGSTYYADSVKGRFTISRDNAKYTVYLQMKSLKPEDTAVFYCATVFVVLPPTRFDSWGQGTQVTVSS”, the “polyreactivity (PSR sort gate)” value is “low polyreactivity”.

On to “QVQLVESGGGLVQAGGSLRLSCPASGFIYPVYAMGWSRQAPGKERELVAAISRRGGSTYYADSVKGRFTISRDNAKNTVYLQMNSLKPDDTAVYYCAKDGRGDPVKDDYWGLGTQVTVSS”, for which the “polyreactivity (PSR sort gate)” value is given as “high polyreactivity”.

Take “QVQLVESGGGLVQAGGSLRLSCPASGFTFVRYAMGWYRQAPGKERELVAAISSSGSSTYYADSVKGRFTISRDNAKYTVYLQMNSLKPEDSAVYYCNARAGRGEDYWGQGTQVTVSS”: the “polyreactivity (PSR sort gate)” value is on record as “low polyreactivity”.

As to “QVQLVESGGGLVQAGGSLRLSCPASGGTFYVYAMGGYRQEPGKERELVAAISTSDGITYYADSVKGRFTISRDNAKNNVYLQMNSLKPEDTAVYYCAAVYAGVGSPVKRDYWGLGTQVTVSS”, the “polyreactivity (PSR sort gate)” value was “high polyreactivity”.

Regarding “QVQLVESGGGLVQAGGSLRLSCPASGRIYDYNGMRWYRQAPRKERELVAAITSSGSRTYYADSVKGRFTISRDNAKNTVYFQMNSLKPEDTAVYYCARGGGRRKGLVDYWGQGTQVSVSS”, the “polyreactivity (PSR sort gate)” value is “low polyreactivity”.

As for “QVQLVESGGGLVQAGGSLRLSCPASGRTFHYYTLGWYRQSPGKERELVARISLGVGSTYYADSVKGRFTISRDIAKNTVDLQMNSLKPEDTAVYYCNAVWYKSVVKGVYGRVDWGQGTQVTVSS”, the “polyreactivity (PSR sort gate)” value is “low polyreactivity”.

Consider “QVQLVESGGGLVQAGGSLRLSCPASGRTFKYYAMGCYRQSPGKESELVAAITSTGGSTYYADSVKGRFTISRDNAMNTVYLQMNSLKPEDTAVYYCNRYTQYRDRSDNHWGQGTQVTVSS”, for which the “polyreactivity (PSR sort gate)” value was “high polyreactivity”.

With “QVQLVESGGGLVQAGGSLRLSCPASGRTFYKYAMGWYRQAPGKEREFVADISSRGGSTYYADSVKGRFTISRDNAKNTVYLQMNSLKPEDTAVYYCAKRDRAAARAYYYWGQGTQVTVSS”, the “polyreactivity (PSR sort gate)” value was “high polyreactivity”.

As for “QVQLVESGGGLVQAGGSLRLSCPASGRTYASYAMGWYRQAPGKDRELVAAITSSGGSTYYADSVKGRFTISRDNAKNTVYLQMNSLKPEYTAVYYCAARSRYRGDSWGQGTQVTVSS”, the “polyreactivity (PSR sort gate)” value is “high polyreactivity”.
